Reference: paper PMC2192386

Experiments:
[1] = biological target: N-RAP-NH (the NH2-terminal half of N-RAP including the LIM domain); assay: ELISA
[2] = biological target: N-RAP-IB (the region of N-RAP between the LIM domain and the nebulin-like repeats); assay: ELISA

B1: muscle LIM protein (MLP), rat, histidine-tagged, full length (natural protein)
chain: MPNWGGGAKCGACDKTVYHAEEIQCNGRSFHKTCFHCMACRKALDSTTVAAHESEIYCKVCYGRKYGPKGIGFGQGAGCLSTDTGEHLGLQFQQSPKPARAATTSNPSKFSAKFGESEKCPRCGKSVYAAEKVMGGGKPWHKTCFPCAICGKSLESTNVTDKDGELYCKVCYAKNFGPTGIGFGGLTHQVEKKE
[1]
  Kd: 8 nM
[2]
  Kd: 17 nM
